According to article PMC7967050 (Advanced Science, 2021):

B1: anti-CD38 scFv antibody RP02 (scFv, V domains shown)
VH: PAQLVESGPGLVKPSGTLSLTCAVSGGSISSSNWWSWVRQPPGKGLEWIGEIYHSGSTNYNPSLKSRVTISVDKSKNQFSLKLSSVTAADTAVYYCAREDYYYYMDVWGKGTTVTVQS
VL: QSVLTQPPSVSAAPGQKVTISCSGSSSNIGNNYVSWYQQLPGTAPKLLIYDNNKRPSGIPDRFSGSKSGTSATLGITGLQTGDEADYYCGTWDSSLSAGVFGGGTKLTVL
notes: selected from a combinatorial scFv phage library; In the functional rows the scFv stands in a CAR on T cells; also called RP02 scFv; source: purified scFv
B2: high-affinity anti-CD38 antibody 028 (scFv) (scFv, V domains shown)
VH: QVQLVQSGAEVKKPGSSVKVSCKAFGGTFSSYAISWVRQAPGQGLEWMGRIIRFLGIANYAQKFQGRVTLIADKSTNTAYMELSSLRSEDTAVYYCAGEPGERDPDAVDIWGQGTMVTVSS
VL: DIQMTQSPSSLSASVGDRVTITCRASQGIRSWLAWYQQKPEKAPKSLIYAASSLQSGVPSRFSGSGSGTDFTLTISSLQPEDFATYYCQQYNSYPLTFGGGTKVEIK
notes: In the functional rows the scFv stands in a CAR on T cells; source: purified scFv

Legend:
[1] = target: T1, CD38 on the cell surface (RPMI8226, Daudi, hPBMC) (Homo sapiens, UniProt P28907); assay: flow cytometry on cells; purified scFv incubated with hPBMC, Daudi or RPMI8226 cells, fluorescence labeled secondary antibody; MFI normalised to that of 028 scFv; details: one partner purified
T1 construct: human CD38, endogenous on the surface of RPMI8226, Daudi and PBMC cells; In the functional rows the same protein is also expressed in K562 cells from electroporated CD38 mRNA; also called cell surface CD38; membrane-expressed CD38; source: endogenous, on RPMI8226, Daudi and human PBMC cells

ECD domain of mouse CD38 = target: T2, ECD domain of mouse CD38 (Mus musculus, UniProt P56528); assay: BLI; purified scFv antibodies against mCD38-ECD on an Octet; set-up for the mouse protein not told; details: both partners purified
T2 construct: mouse CD38, extracellular domain; also called mCD38-ECD
T2 sequence (P56528 45-304): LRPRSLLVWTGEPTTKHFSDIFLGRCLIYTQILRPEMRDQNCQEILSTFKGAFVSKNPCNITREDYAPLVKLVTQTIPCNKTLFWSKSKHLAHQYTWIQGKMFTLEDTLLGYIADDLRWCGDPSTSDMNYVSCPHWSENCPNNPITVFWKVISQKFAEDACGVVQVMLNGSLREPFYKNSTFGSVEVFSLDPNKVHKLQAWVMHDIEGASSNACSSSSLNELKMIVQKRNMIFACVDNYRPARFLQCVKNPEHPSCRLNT

[2] = target: T3, Recombinant human CD38 extracellular domain (amino acids 43–300, hCD38-ECD) (Homo sapiens, UniProt P28907, biotin (EZ-Link NHS-PEG4-biotin) for panning and for capture on the SA biosensor; not said for the cross-linking); assay: BLI; Octet Red96, room temperature; biotin conjugated hCD38-ECD captured on SA biosensor; scFv in PBS, 0.02% Tween-20, 0.05% BSA, pH 7.4; association 300 s, dissociation 1200 s; 1:1 Langmuir model; for RP02 (biphasic dissociation) only the initial 0-330 s fitted, apparent KD; details: both partners purified
T3 construct: human CD38, extracellular domain, amino acids 43-300; also called purified CD38; extracellular domain of human CD38; source: bought: Sino Biological, Cat. No. 10818-H08H

| Binder | binding result [1] | binding result (ECD domain of mouse CD38) | Kd [2] |
| --- | --- | --- | --- |
| B1 | binds | no binding |  |
| B2 |  |  | 0.65 nM |
